Tested on: HCV pseudovirion entry
Test: HCV pseudovirion entry into target cells
Type: cell-based
Conditions: E1/E2-mediated entry of pseudovirions
Excerpt: The procedure of Bartosch et al. (2003b) was used to generate retroviral particles pseudotyped with HCV envelope glycoproteins (HCV pseudovirus particles; HCVpp). Briefly, in order to generate HCV pseudovirions, 293T cells were cotransfected with HIV-1-based (pLenti6, Invitrogen) or MMLV-based (pFB, Stratagene, La Jolla, Calif.) retroviral vectors and vectors expressing structural genes, including Gag, Pol and envelope glycoproteins (see FIG. 2). In addition, the HIV-1-based vector was cotransfected with a Rev-encoding plasmid to enable transport of genomic RNAs from the nucleus to the cytoplasm.
Antibodies against E2 as well as HCV+ sera inhibited E1/E2-mediated entry.

B1: soluble CD81 ECL2 peptide: soluble CD81 ECL2 peptide (peptide)
peptide: FVNKDQIAKDVKQFYDQALQQAVVDDDANNAKAVVKTFHETLDCCGSSTLTALTTSVLKNNLCPSGSNIISNLFKEDCHQKIDDLFSGK
inhibition of HCV pseudovirion entry: inhibited HCV pseudovirion entry
